Assay results published in US8540999B2, “Allergenic proteins and peptides from Japanese cedar pollen” (Merck Patent GmbH, priority 1991, dated 2013).

B1: rCry j I: recombinant Cry j I protein expressed in bacteria (E. coli) and purified (protein)
chain: DNPIDSCWRGDSNWAQNRMKLADCAVGFGSSTMGGKGGDLYTVTNSDDDPVNPAPGTLRYGATRDRPLWIIFSGNMNIKLKMPMYIAGYKTFDGRGAQVYIGNGGPCVFIKRVSNVIIHGLYLYGCSTSVLGNVLINESFGVEPVHPQDGDALTLRTATNIWIDHNSFSNSSDGLVDVTLTSTGVTISNNLFFNHHKVMLLGHDDAYSDDKSMKVTVAFNQFGPNCGQRMPRARYGLVHVANNNYDPWTIYAIGGSSNPTILSEGNSFTAPNESYKKQVTIRIGCKTSSSCSNWVWQSTQDVFYNGAYFVSSGKYEGGNIYTKKEAFNVENGNATPQLTKNAGVLTCSLSKRC
modifications: left off: small tags and cut ends
notes: recombinant Cry j I protein expressed in bacteria (E. coli) and purified

Legend:
Cry j I reactive T cells = experiment: T cell proliferation assay, Cry j I primed T cell lines (Example 6); assay type: cell-based, human
Experimental: Viable cells were purified by LSM centrifugation and cultured in complete medium supplemented with 5 units recombinant human IL-2/ml and 5 units recombinant human IL-4/ml for up to three weeks until the cells no longer responded to lymphokines and were considered “rested”. The ability of the T cells to proliferate to selected peptides, recombinant Cry j I (rCry j I), purified native Cry j I, or recombinant Amb aI.1 (rAmb aI.1) or a positive control, phyto-hemaglutinin (PHA) was then assessed. For assay, 2×10^4 rested cells were restimulated in the presence of 2×10^4 autologous Epstein-Barr virus (EBV)-transformed B cells (prepared as described below) (gamma-irradiated with 25,000 RADS) with 2-50 μg/ml of selected peptides, Cry j I, purified native Cry j I or rAmb a I.1 or PHA, in a volume of 200 μl complete medium in duplicate or triplicate wells in 96-well round bottom plates for 2-4 days. […] Each well then received 1 μCi tritiated thymidine for 16-20 hours. The counts incorporated were collected onto glass fiber filter mats and processed for liquid scintillation counting. […] The titrations were used to optimize the dose of peptides in T cell assays. The maximum response in a titration of each peptide is expressed as the stimulation index (S.I.). The S.I. is the counts per minute (CPM) incorporated by cells in response to peptide, divided by the CPM incorporated by cells in medium only.
The above procedure was followed with a number of other patients. […] The bars represent the positivity index. Above each bar is the percent of positive responses with an S.I. of at least two to the peptide or protein in the group of patients tested. In parenthesis above each bar are the mean stimulation indices for each peptide or protein for the group of patients tested.
Autologous EBV-transformed cell lines were y-irradiated with 25,000 Rad and used as antigen presenting cells in secondary proliferation assays and secondary bulk stimulations. These EBV-transformed cell lines were made by incubating 5×10^6 PBL with 1 ml of B-59/8 Marmoset cell line (ATCC CRL1612, American Type Culture Collection, Rockville, Md.) conditioned medium in the presence of 1 μg/ml phorbol 12-myristate 13-acetate (PMA) at 37° C. for 60 minutes in 12×75 mm polypropylene round-bottom Falcon snap cap tubes (Becton Dickinson Labware, Lincoln Park, N.J.). These cells were then diluted to 1.25×10^6 cells/ml in RPMI-1640 as described above except supplemented with 10% heat-inactivated fetal bovine serum and cultured in 200 μl aliquots in flat bottom culture plates until visible colonies were detected. They were then transferred to larger wells until the cell lines were established.

[1] = tested on: Secondary T cell cultures reactive with Cry j I protein antigen; experiment: In vitro T cell proliferation assay, secondary T cell cultures of 36 Cry j I-allergic subjects, percent T cell reactivity algorithm; assay type: cell-based, human; settings: patient 1308; highest S.I. >= 2.0 recorded per peptide
human allergic IgE = experiment: Capture ELISA with MAb CBF2; assay type: binding; settings: pooled human plasma (15 patients), FIG. 10a
Experimental: Another method of analysis that was applied to the examination of IgE reactivity to the recombinant Cry j I was a capture ELISA. This analysis relies on the use of a defined antibody, in this case CBF2 to bind the antigen and allow for the binding of antibodies to other epitope sites. The format of this capture ELISA is 1) wells are coated with MAb CBF2, 2) antigen or PBS (as one type of negative control) is added and captured by specific interaction with the coated MAb, 3) either the control antibody anti-Amb a I & II (FIG. 10b) or human allergic plasma (FIG. 10a) is added as the detecting antibody, and 4) detection of antibody binding is assayed. FIGS. 10a and 10b are the graphed results of these assays. For the IgE analysis, the pooled human plasma (PHP) (15 patients) was used.

allergic patient IgE = experiment: Direct ELISA, IgE binding to rCry j I and Cry j I peptides (Example 8); set-up: species or system human
Experimental: The recombinant Cry j I protein (rCry j I), expressed in bacteria and then purified (as described in Example 5), has been examined for IgE reactivity. The first method applied to this examination was direct ELISA where wells were coated with the recombinant Cry j I and IgE binding was assayed on individual patients. FIG. 9 is the graphic representation of this direct ELISA.
To analyze IgE reactivity to selected Cry j I peptides a direct ELISA format was used. ELSIA wells were coated with 25 peptides derived from Cry j I and assayed for IgE binding. FIG. 15a and 15b are graphs of these binding results using PHP (15 patients) as the cedar pollen allergic IgE source. This pool of plasma was formulated for enrichment of IgE that could bind to denatured SPE (as determined by direct ELISA) and therefore increase the chance of reactivity toward the peptides.

IgE = experiment: RAST, competition ELISA and Western blotting (data not shown); assay type: binding, human
human basophil = experiment: Histamine release assay; assay type: cell-based; settings: one Japanese cedar pollen allergic patient, FIG. 11
Experimental: To determine whether a peptide which binds IgE results in the release of mediators, a histamine release assay can be performed using standard reagents and protocols obtained for example, from Amac, Inc. (Westbrook, Me.). Briefly, a buffered solution of a peptide to be tested is combined with an equal volume of whole heparinized blood from an allergic subject. After mixing and incubation, the cells are pelleted and the supernatants are processed an analyzed using a radioimmunoassay to determine the amount of histamine released.
A histamine release assay was performed on one Japanese cedar pollen allergic patient using Japanese cedar pollen SPE, purified native Cry j I and rCry j I as the added antigens. This assay is a measure of IgE reactivity through human basophil mediator release. […] Two possible explanations for this release by the rCry j I are: 1) specific reactivity with a very low proportion of the anti-Cry j I IgE capable of recognizing the recombinant form of Cry j I, or 2) non-specific release caused by low abundance of bacterial contaminants observed only at the highest antigen concentration. […] In addition, the data shown are from single data points at each protein concentration.

| Molecule | T cell line response (Cry j I reactive T cells; panel of twenty-five patients, FIG. 14) | STIMULATION INDEX [1] | specific binding of human allergic IgE, capture ELISA (human allergic IgE) | IgE binding, direct ELISA (allergic patient IgE; PHP (15 patients), FIG. 15) | IgE reactivity, direct ELISA (allergic patient IgE; individual patients, FIG. 9) | percent of positive responses with an S.I. of at least two (Cry j I reactive T cells; 25 patients / T cell lines, FIG. 14) [%] | T cell proliferative response (Cry j I reactive T cells; patient #999, FIG. 12) | specific IgE reactivity (IgE) | histamine release (human basophil) |
| --- | --- | --- | --- | --- | --- | --- | --- | --- | --- |
| CJ1-30: Cry j I peptide, SEQ ID NO: 55 (CSNWVWQSTQDVFYNGAYFV; listed as Cryptomeria japonica) | responded | 0 |  |  |  |  |  |  |  |
| B1 |  |  | no indication of any specific binding | does not bind | no IgE reactivity | 68.0 | responds well | no specific IgE reactivity | only point where there is any measurable histamine release with the Cry j I is at the highest concentration |
